Numbering of substitutions follows the chain as printed.
B1: hu94B2 HC3 + LC11 (antibody, V domains shown)
VH: EVQLVQSGAEVKKPGASVKVSCKASGYSLTGYTMNWVRQAPGQGLEWIGLISPYNGVTSYNQKFKGRATITVDKSTSTAYLELSSLRSEDTAVYYCARQGAYWGQGTLVTVSS
VL: DVVMTQTPLSLPVTPGQPASISCKSSQSLLDSDGKTYLNWYLQKPGQSPQRLIYLVSKLDSGVPDRFSGSGSGTDFTLKISRVEAEDVGVYYCWQGTHFPWTFGQGTKVEIK
B2: hu94B2 HC6 + LC15 (antibody, V domains shown)
VH: B1 VH with A68V
VL: B1 VL with V2I
B3: hu94B2 HC6 + LC9 (antibody, V domains shown)
VH: B1 VH with A68V
VL: B1 VL with Y41L
B4: hu94B2 HC4 + LC9 (antibody, V domains shown)
VH: B1 VH with I70L, V72R
VL: B1 VL with Y41L
B5: hu94B2 HC8 + LC13 (antibody, V domains shown)
VH: B1 VH with A68V, K74T
VL: B1 VL with V2I, Y41L
B6: hu94B2 HC2 + LC15 (antibody, V domains shown)
VH: B1 VH with A68V, I70L
VL: B1 VL with V2I
B7: hu94B2 HC4 + LC13 (antibody, V domains shown)
VH: B1 VH with I70L, V72R
VL: B1 VL with V2I, Y41L
B8: hu94B2 HC1 + LC11 (antibody, V domains shown)
VH: B1 VH with I70L
VL: B1 VL
B9: hu94B2 HC2 + LC9 (antibody, V domains shown)
VH: B1 VH with A68V, I70L
VL: B1 VL with Y41L
B10: hu94B2 HC3 + LC13 (antibody, V domains shown)
VH: B1 VH
VL: B1 VL with V2I, Y41L
B11: hu94B2 HC1 + LC15 (antibody, V domains shown)
VH: B1 VH with I70L
VL: B1 VL with V2I
B12: hu94B2 HC2 + LC13 (antibody, V domains shown)
VH: B1 VH with A68V, I70L
VL: B1 VL with V2I, Y41L
B13: hu94B2 HC3 + LC15 (antibody, V domains shown)
VH: B1 VH
VL: B1 VL with V2I
B14: hu94B2 HC8 + LC15 (antibody, V domains shown)
VH: B1 VH with A68V, K74T
VL: B1 VL with V2I
B15: hu94B2 HC5 + LC15 (antibody, V domains shown)
VH: B1 VH with I70L, K74T
VL: B1 VL with V2I
B16: hu94B2 HC8 + LC9 (antibody, V domains shown)
VH: B1 VH with A68V, K74T
VL: B1 VL with Y41L
B17: hu94B2 HC6 + LC13 (antibody, V domains shown)
VH: B1 VH with A68V
VL: B1 VL with V2I, Y41L
B18: hu94B2 HC8 + LC11 (antibody, V domains shown)
VH: B1 VH with A68V, K74T
VL: B1 VL
B19: hu94B2 HC6 + LC11 (antibody, V domains shown)
VH: B1 VH with A68V
VL: B1 VL
B20: hu94B2 HC5 + LC11 (antibody, V domains shown)
VH: B1 VH with I70L, K74T
VL: B1 VL
B21: hu94B2 HC5 + LC13 (antibody, V domains shown)
VH: B1 VH with I70L, K74T
VL: B1 VL with V2I, Y41L
B22: hu94B2 HC3 + LC9 (antibody, V domains shown)
VH: B1 VH
VL: B1 VL with Y41L
B23: hu94B2 HC2 + LC11 (antibody, V domains shown)
VH: B1 VH with A68V, I70L
VL: B1 VL
B24: hu94B2 HC5 + LC9 (antibody, V domains shown)
VH: B1 VH with I70L, K74T
VL: B1 VL with Y41L
B25: hu94B2 HC7 + LC9 (antibody, V domains shown)
VH: B1 VH with A68V, V72R
VL: B1 VL with Y41L
B26: hu94B2 HC7 + LC13 (antibody, V domains shown)
VH: B1 VH with A68V, V72R
VL: B1 VL with V2I, Y41L
B27: 126F11-G11 (antibody, mouse IgG2a, V domains shown)
VH: EVQLQQSGAELVRPGASVKLSCTASGFNIKDDYMHWVKQRPEQGLEWIGWIDPENGDTEYASKFQGKATITTDTSSNTAYLQLSSLTSEDTAVYYCLDFAYGYWGQGTTLTVSS
VL: DVLMTQTPLSLPVSLGDQASISCRSSQSIVHSNGNTYLEWYLQKPGQSPKLLIYKVSNRFSGVPDRFSGSGSGTDFTLKISRVEAEDLGVYYCFQGSHVPPAFGGGTKLEIK
B28: 93A8-D2 (antibody, mouse IgG2a, V domains shown)
VH: EVQLQQSGPVLVKPGASVKMSCKASGYTFTDYYVNWVKQSHGKGLEWIGLINPNNGRTSYNQNFNDKATLTVDKSSSTAFMDLNSLTSEDSAVYYCTREGGTGYWGQGTTLSVSS
VL: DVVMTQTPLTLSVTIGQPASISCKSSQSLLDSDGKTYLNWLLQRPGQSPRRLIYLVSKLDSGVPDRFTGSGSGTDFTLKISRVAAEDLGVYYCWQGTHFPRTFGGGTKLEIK
B29: 125B11-H3 (antibody, mouse IgG2a, V domains shown)
VH: EVKLEESGGGLVQPGGSMKLSCVASRFIFSNYWMNWVRQSPEKGLEWVAQIRLKSDNYATHYAESVKGRFTISRDDSKSSVYLQMNNLRAEDTGIYYCTGGTTYWGQGTTLTVSS
VL: DIVMTQSQKFLSTSVGDRVNITCKASQNVGTAVAWYQQKPGQSPGLLIYSASIRYTGVPDRFTGNGSGTDFTLTISDMQSEDLADYFCQQFRTYPYTFGGGTKLEIK
notes: also called 125B1-H3

Target: T1, recombinant human Tau monomer, 2N4R isoform (amino acids 2-441) (human, UniProt P10636-8 2-441)
T1 construct: range 2-441; N-terminal His-tag removed with TEV protease; also called monomeric Tau
T1 sequence (P10636 other isoform, or with tags, fused parts or gaps limits assumed): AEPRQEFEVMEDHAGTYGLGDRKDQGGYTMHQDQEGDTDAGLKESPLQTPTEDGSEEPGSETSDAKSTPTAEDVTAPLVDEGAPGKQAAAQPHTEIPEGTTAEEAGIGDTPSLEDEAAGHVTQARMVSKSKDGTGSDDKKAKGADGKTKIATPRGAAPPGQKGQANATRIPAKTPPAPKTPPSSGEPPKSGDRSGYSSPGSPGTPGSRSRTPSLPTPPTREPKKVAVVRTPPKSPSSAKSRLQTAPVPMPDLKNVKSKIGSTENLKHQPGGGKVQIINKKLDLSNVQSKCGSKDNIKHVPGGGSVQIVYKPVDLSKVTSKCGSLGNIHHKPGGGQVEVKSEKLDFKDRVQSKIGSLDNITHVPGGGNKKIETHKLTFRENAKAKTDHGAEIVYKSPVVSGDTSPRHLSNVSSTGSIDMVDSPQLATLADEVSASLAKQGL
Experiment: SPR screen, hIgG captured, Tau monomer analyte
Description: Antibody 125B11-H3 was humanized onto VH3 and Vκ1 consensus frameworks. The heavy chain graft included murine residues at position 78 (Kabat numbering system). The Vκ1 graft included murine residues in framework positions 43 and 87. The light chain of 113F5-F7 was also humanized onto the Vκ1 framework, with additional murine residues at framework positions 43 and 87. Humanized variant heavy chains (125B11) and light chains (125B11 and 113F5-F7) were co-transfected in multiple combinations and purified in 96-well format as described above. Humanized variants were then screened for affinity for human Tau monomer using the Biacore human IgG capture kit, a Series S CM5 chip and a Biacore T200 instrument. Antibodies were diluted to 2 μg/ml and captured for 15 seconds at 10 μl/min. Association and dissociation of 0, 100 and 500 nM human Tau monomer in HBSP was monitored for 180s and 300s respectively at a flow rate of 40 μl/min. A 1:1 binding model was applied to the results (Table 9).
Variants hu125B11.v17 (HC3+LC1), hu125B11.v26 (HC4+LC2) and hu125B 11.v28 (HC4+LC4) were selected for high-resolution kinetic analysis based on the affinity screen (Table 10). Antibody 94B2-C1 was humanized onto VH1 and Vx2 frameworks. The heavy chain graft also included murine residues at position 28, 29, 67, 69, 71, and 73 (Kabat numbering system). The Vκ2 graft also included murine residues in framework positions 2, 36, and 46. […] Variant hu94B2.v105 (heavy chain variant 94B2.HCl, light chain variant 94B2.LC13) was selected for detailed SPR characterization (Table 11).

| Binder | Kd [nM] |
| --- | --- |
| B1 | 69.3 |
| B2 | 74.1 |
| B3 | 0.9 |
| B4 | 61.9 |
| B5 | 2.4 |
| B6 | 99.6 |
| B7 | 64.1 |
| B8 | 91.5 |
| B9 | 5.7 |
| B10 | 3.8 |
| B11 | 104 |
| B12 | 7.4 |
| B13 | 64.1 |
| B14 | 51.5 |
| B15 | 72.6 |
| B16 | 1 |
| B17 | 3 |
| B18 | 44.3 |
| B19 | 70.1 |
| B20 | 62.6 |
| B21 | 4 |
| B22 | 2 |
| B23 | 89.6 |
| B24 | 2.7 |
| B25 | 52.9 |
| B26 | 57.8 |

Target: T1, recombinant human Tau monomer, 2N4R …
Experiment: SPR, mIgG2a captured, Tau monomer analyte, 1:1 fit
Description: Antibody heavy and light chains were constructed via gene synthesis and subcloning of the resulting DNA into murine IgG2a (heavy chain) and murine kappa (light chain) mammalian expression vectors. Antibodies were expressed in CHO or 293T cells by transient co-transfection of the heavy chain and light chain plasmids and were purified with affinity resin MabSelectSure (GE Healthcare Life Sciences). Purified recombinant antibodies were screened for binding to Tau monomer protein on a Biacore T200 surface plasmon resonance instrument using a mouse IgG capture kit and a Series S CM5 chip. Antibodies in mIgG2a format diluted in 10 mM HEPES pH7.4, 150 mM NaCl, 0.05% Tween 20 (running buffer, HBSP) were captured for 30 or 45 seconds at a concentration of 1 μg/ml (antibodies 26C1, 94B2-C1, 52F6-F11.v1, 52F6-F11.v2, 11E10-B8, 55E7-F11, 125B1-H3, 123E9-A1, 30G1-B2, 66F5-A1, 89F4-A1, 93A8-D2 and 126F11-G11) or for 70 or 150 seconds at a concentration of 0.1 μg/ml (antibodies 19H6-F7, 3A4-H4, 54C1-H11 and 37D3-H9) using a flow rate of 10 μl/min. […] Association and dissociation times were monitored for 180-480 seconds and for 300-600 seconds respectively. Antibody 37D3-H9 was selected for further analysis due to the high affinity (Table 6) and the absence of NXS/T glycosylation motifs in the CDRs.

| Binder | Kd [nM] | koff [s⁻¹] | kon [M⁻¹ s⁻¹] |
| --- | --- | --- | --- |
| B27 | 3 | 0.004 | 2e+06 |
| B28 | 6 | 0.002 | 300000 |
| B29 | 5 | 0.0003 | 50000 |

Target: T2, full-length human Tau (flTau) (human, UniProt P10636-8 1-441)
T2 construct: range 1-441; bought (SignalChem); also called human Tau-441
T2 sequence (P10636 other isoform, or with tags, fused parts or gaps limits assumed): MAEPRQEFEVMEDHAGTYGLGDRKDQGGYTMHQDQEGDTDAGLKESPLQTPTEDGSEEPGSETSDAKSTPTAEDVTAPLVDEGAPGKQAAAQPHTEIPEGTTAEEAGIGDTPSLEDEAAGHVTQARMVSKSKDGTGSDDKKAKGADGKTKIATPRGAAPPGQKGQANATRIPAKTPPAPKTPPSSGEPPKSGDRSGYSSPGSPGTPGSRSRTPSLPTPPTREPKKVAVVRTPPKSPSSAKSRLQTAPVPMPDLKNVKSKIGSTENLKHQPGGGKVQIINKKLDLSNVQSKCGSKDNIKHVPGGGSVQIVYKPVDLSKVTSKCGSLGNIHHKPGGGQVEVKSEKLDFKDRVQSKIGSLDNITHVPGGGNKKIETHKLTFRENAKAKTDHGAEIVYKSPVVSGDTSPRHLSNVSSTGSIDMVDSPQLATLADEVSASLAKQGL
Experiment: SPR, hybridoma Ab on anti-IgG chip, flTau analyte
Protocol: Affinity of non-purified antibodies in serum-free hybridoma supernatants was estimated by surface plasmon resonance using a Biacore T-100 instrument (GE Healthcare, United Kingdom). Antibodies were immobilized onto an anti-IgG biosensor chip, and flTau (SignalChem, Canada) was used as the target analyte. Kinetic analysis was done using a 1:1 Langmuir fit model.
For affinity measurements to flTau, antibodies were measured using SPR on a Biacore instrument, with the KDs determined. Biacore affinity measurements were done by immobilizing antibodies on an anti-IgG chip and using flTau as the target analyte.

| Binder | Kd [nM] |
| --- | --- |
| B27 | 4.2 |
| B28 | 4.3 |
| B29 | 6 |
